# Laboratory results from the supplement of paper PMC9112550, “Optimization of the antimicrobial peptide Bac7 by deep mutational scanning” (BMC Biology, 2022).
# Tested on: Escherichia coli TOP10
# Assay: shrunken log2 fold change of peptide-encoding DNA abundance (4.5 h post-induction vs induction); higher = less antimicrobial activity (less host growth inhibition)
# Conditions: time post-induction: 4.5 h; library: site-saturation at positions 5, 18, 19, 20
# 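Also: peptides expressed intracellularly from a pBAD plasmid library in pooled LB shake-flask culture, induced with 0.3% L-arabinose, DNA abundance read by NGS, three biological replicates, DESeq2 with apeglm shrinkage.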
row,Sequence,shrunken log2 fold change
1,RRIRQRPPRLPRPRPRPCDCPRP,-0.0243
2,RRIRWRPPRLPRPRPRPTFLPRP,0.146
3,RRIRARPPRLPRPRPRPEGCPRP,1.31
4,RRIRFRPPRLPRPRPRPVNHPRP,-0.384
5,RRIRSRPPRLPRPRPRPGFIPRP,-0.205
6,RRIRERPPRLPRPRPRPMSNPRP,-0.16
7,RRIRNRPPRLPRPRPRPVLAPRP,0.093
8,RRIRIRPPRLPRPRPRPGIVPRP,-0.399
9,RRIRLRPPRLPRPRPRPLYGPRP,-0.249
10,RRIRNRPPRLPRPRPRPRCIPRP,-0.256
11,RRIRARPPRLPRPRPRPMAYPRP,0.546
12,RRIRERPPRLPRPRPRPDIVPRP,-0.158
13,RRIRARPPRLPRPRPRPFWNPRP,0.127
14,RRIRFRPPRLPRPRPRPRAMPRP,0.241
15,RRIRFRPPRLPRPRPRPVGGPRP,0.405
16,RRIRIRPPRLPRPRPRPDIRPRP,-0.00601
17,RRIRSRPPRLPRPRPRPYCGPRP,-0.726
18,RRIRSRPPRLPRPRPRPPLFPRP,0.257
19,RRIRRRPPRLPRPRPRPCIHPRP,-0.402
20,RRIRNRPPRLPRPRPRPEMTPRP,-0.059
21,RRIRTRPPRLPRPRPRPFILPRP,-0.276
22,RRIRIRPPRLPRPRPRPTYSPRP,-0.408
23,RRIRIRPPRLPRPRPRPASRPRP,-0.106
24,RRIRWRPPRLPRPRPRPYAWPRP,0.122
25,RRIRERPPRLPRPRPRPKLVPRP,0.0398

row,Sequence,shrunken log2 fold change
1,RRIRPRPPRLPRPRPRPPAFPRP,0.166
2,RRIRDRPPRLPRPRPRPCQYPRP,-0.0971
3,RRIRYRPPRLPRPRPRPSWCPRP,-0.0502
4,RRIRGRPPRLPRPRPRPQSNPRP,0.518
5,RRIRCRPPRLPRPRPRPPIDPRP,-0.071
6,RRIRQRPPRLPRPRPRPCMDPRP,0.00489
7,RRIRTRPPRLPRPRPRPDNRPRP,-0.0132
8,RRIRRRPPRLPRPRPRPFMAPRP,0.113
9,RRIRVRPPRLPRPRPRPEPMPRP,-0.0177
10,RRIRARPPRLPRPRPRPCNVPRP,-0.0688
11,RRIRRRPPRLPRPRPRPFMCPRP,0.0373
12,RRIRHRPPRLPRPRPRPWRDPRP,-0.154
13,RRIRQRPPRLPRPRPRPHGQPRP,0.184
14,RRIRFRPPRLPRPRPRPPDYPRP,-0.026
15,RRIRWRPPRLPRPRPRPAANPRP,-0.136
16,RRIRMRPPRLPRPRPRPDQKPRP,-0.0396
17,RRIRMRPPRLPRPRPRPANRPRP,0.21
18,RRIRMRPPRLPRPRPRPDCAPRP,1.95
19,RRIRSRPPRLPRPRPRPAHPPRP,0.427
20,RRIRVRPPRLPRPRPRPFLHPRP,-0.13
21,RRIRQRPPRLPRPRPRPAVSPRP,-0.0348
22,RRIRFRPPRLPRPRPRPQKVPRP,-0.194
23,RRIRERPPRLPRPRPRPSYGPRP,-0.708
24,RRIRLRPPRLPRPRPRPETEPRP,0.0833
25,RRIRWRPPRLPRPRPRPGVIPRP,0.0325

row,Sequence,shrunken log2 fold change
1,RRIRFRPPRLPRPRPRPYKWPRP,-0.298
2,RRIRYRPPRLPRPRPRPDHPPRP,0.0184
3,RRIRHRPPRLPRPRPRPHAEPRP,-0.0216
4,RRIRHRPPRLPRPRPRPPCYPRP,-0.131
5,RRIRRRPPRLPRPRPRPYFMPRP,-0.353
6,RRIRWRPPRLPRPRPRPGGTPRP,0.209
7,RRIRIRPPRLPRPRPRPSTEPRP,-0.388
8,RRIRMRPPRLPRPRPRPDKHPRP,0.253
9,RRIRYRPPRLPRPRPRPRPDPRP,-0.0672
10,RRIRVRPPRLPRPRPRPIHFPRP,-0.0962
11,RRIRMRPPRLPRPRPRPCWAPRP,0.168
12,RRIRNRPPRLPRPRPRPYEDPRP,-0.173
13,RRIRARPPRLPRPRPRPTVWPRP,0.552
14,RRIRRRPPRLPRPRPRPFPHPRP,0.292
15,RRIRLRPPRLPRPRPRPFLLPRP,-0.47
16,RRIRRRPPRLPRPRPRPTYLPRP,-0.348
17,RRIRVRPPRLPRPRPRPALSPRP,0.414
18,RRIRCRPPRLPRPRPRPYNRPRP,-0.0425
19,RRIRWRPPRLPRPRPRPSIPPRP,0.46
20,RRIRPRPPRLPRPRPRPEKRPRP,0.0688
21,RRIRVRPPRLPRPRPRPISMPRP,0.0223
22,RRIRQRPPRLPRPRPRPLQSPRP,-0.0698
23,RRIRGRPPRLPRPRPRPEIEPRP,1.37
24,RRIRSRPPRLPRPRPRPHTSPRP,-0.445
25,RRIRCRPPRLPRPRPRPKSIPRP,-0.349

row,Sequence,shrunken log2 fold change
1,RRIRVRPPRLPRPRPRPSPNPRP,-0.271
2,RRIRWRPPRLPRPRPRPCLNPRP,0.0137
3,RRIRSRPPRLPRPRPRPRHSPRP,-0.356
4,RRIRIRPPRLPRPRPRPPQWPRP,0.205
5,RRIRPRPPRLPRPRPRPKSSPRP,-0.278
6,RRIRRRPPRLPRPRPRPGNQPRP,0.0401
7,RRIRDRPPRLPRPRPRPDFLPRP,0.136
8,RRIRKRPPRLPRPRPRPNEIPRP,0.118
9,RRIRARPPRLPRPRPRPAVFPRP,0.679
10,RRIRVRPPRLPRPRPRPACHPRP,0.0396
11,RRIRMRPPRLPRPRPRPIIMPRP,-0.46
12,RRIRTRPPRLPRPRPRPTYIPRP,-0.603
13,RRIRVRPPRLPRPRPRPHCDPRP,-0.401
14,RRIRTRPPRLPRPRPRPYKIPRP,-0.15
15,RRIRCRPPRLPRPRPRPCAGPRP,0.039
16,RRIRFRPPRLPRPRPRPNWPPRP,0.333
17,RRIRNRPPRLPRPRPRPTPTPRP,0.674
18,RRIRYRPPRLPRPRPRPGFYPRP,-0.406
19,RRIRQRPPRLPRPRPRPLLVPRP,-0.295
20,RRIRKRPPRLPRPRPRPYQDPRP,0.0178
21,RRIRTRPPRLPRPRPRPKQIPRP,0.0644
22,RRIRRRPPRLPRPRPRPMEYPRP,-0.0405
23,RRIRDRPPRLPRPRPRPFQEPRP,-0.137
24,RRIRFRPPRLPRPRPRPEAGPRP,0.806
25,RRIRARPPRLPRPRPRPCQMPRP,-0.0341

row,Sequence,shrunken log2 fold change
1,RRIRTRPPRLPRPRPRPGFVPRP,-0.0603
2,RRIRKRPPRLPRPRPRPAIYPRP,-0.109
3,RRIRVRPPRLPRPRPRPMWAPRP,0.0354
4,RRIRVRPPRLPRPRPRPNVMPRP,-0.173
5,RRIRMRPPRLPRPRPRPWCWPRP,0.366
6,RRIRDRPPRLPRPRPRPLDWPRP,0.0834
7,RRIRARPPRLPRPRPRPFYTPRP,-0.685
8,RRIRLRPPRLPRPRPRPPYHPRP,-0.317
9,RRIRTRPPRLPRPRPRPLTQPRP,-0.309
10,RRIRERPPRLPRPRPRPLVTPRP,0.503
11,RRIRFRPPRLPRPRPRPPRIPRP,0.232
12,RRIRQRPPRLPRPRPRPCPGPRP,-0.0035
13,RRIRRRPPRLPRPRPRPKLHPRP,0.167
14,RRIRWRPPRLPRPRPRPMSVPRP,0.0691
15,RRIRRRPPRLPRPRPRPSKAPRP,-0.0721
16,RRIRMRPPRLPRPRPRPRPRPRP,1.68
17,RRIRGRPPRLPRPRPRPLCRPRP,0.598
18,RRIRKRPPRLPRPRPRPEDMPRP,0.0387
19,RRIRHRPPRLPRPRPRPKWMPRP,-0.123
20,RRIRQRPPRLPRPRPRPTVEPRP,0.186
21,RRIRKRPPRLPRPRPRPPITPRP,0.0882
22,RRIRGRPPRLPRPRPRPHKEPRP,-0.0695
23,RRIRCRPPRLPRPRPRPSVTPRP,-0.288
24,RRIRGRPPRLPRPRPRPRWQPRP,0.994
25,RRIRGRPPRLPRPRPRPWQVPRP,-0.00145

row,Sequence,shrunken log2 fold change
1,RRIRLRPPRLPRPRPRPTRYPRP,0.0777
2,RRIRERPPRLPRPRPRPMEYPRP,-0.00776
3,RRIRHRPPRLPRPRPRPMWIPRP,-0.0176
4,RRIRIRPPRLPRPRPRPDYTPRP,-0.00167
5,RRIRGRPPRLPRPRPRPNCSPRP,0.99
6,RRIRPRPPRLPRPRPRPGCHPRP,0.332
7,RRIRFRPPRLPRPRPRPDPVPRP,0.227
8,RRIRERPPRLPRPRPRPGQYPRP,-0.113
9,RRIRFRPPRLPRPRPRPSTCPRP,-0.262
10,RRIRLRPPRLPRPRPRPIRSPRP,-0.0199
11,RRIRSRPPRLPRPRPRPLDDPRP,-0.0921
12,RRIRYRPPRLPRPRPRPFPTPRP,-0.781
13,RRIRKRPPRLPRPRPRPMLNPRP,0.174
14,RRIRHRPPRLPRPRPRPPRNPRP,0.105
15,RRIRRRPPRLPRPRPRPRGGPRP,0.509
16,RRIRARPPRLPRPRPRPYFEPRP,-0.577
17,RRIRPRPPRLPRPRPRPIECPRP,-0.206
18,RRIRGRPPRLPRPRPRPNANPRP,0.837
19,RRIRTRPPRLPRPRPRPHVRPRP,-0.00804
20,RRIRQRPPRLPRPRPRPTPFPRP,0.296
21,RRIRDRPPRLPRPRPRPCSKPRP,0.0354
22,RRIRARPPRLPRPRPRPACFPRP,0.736
23,RRIRHRPPRLPRPRPRPGWYPRP,-0.018
24,RRIRNRPPRLPRPRPRPNADPRP,-0.194
25,RRIRIRPPRLPRPRPRPTNLPRP,-0.606
